According to the supplement of paper PMC9170038:

Test system: MS2 coat protein
Experiment: apparent KD of MS2 coat protein; higher = weaker reporter binding
Settings: Eterna round: R107
Method: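 RNA-MaP round R107: designed RNA switches with theophylline, tryptophan, arginine or FMN aptamers are transcribed on-chip within common flanks. They are titrated with SNAP-549-labelled MS2 coat protein in RNA-MaP buffer (100 mM Tris pH 7.5, 80 mM KCl, 4 mM MgCl2), without ligand or with the indicated ligand. Median apparent KD per design.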

[1] = input ligand: theophylline 20 uM
[2] = input ligand: tryptophan 2.4 mM
[3] = input ligand: theophylline 2 mM

## CCUUUUAUUAAUGAUACCAGCGUAUUAAGCAUCACCUUGGACAUGAGGAUCACCCAUGUACGCCCUUGGCAGCAUACCACUGGGU [theeternabot_exclusion_MS2_Theo_B_5]
Input ligand: arginine 13.2 mM
  apparent KD of MS2 coat protein: 35.7 nM
[1]
  apparent KD of MS2 coat protein: 52.2 nM
[2]
  apparent KD of MS2 coat protein: 34.7 nM

## GGUUACUCUACGGCCGCCACUGGGCAUGUAAAUAACAUGAGGAUCACCCAUGUGGAAUAAAAUUACAGGACCGGGUAGUGUAACC [Tryptophan B 22]
Input ligand: arginine 13.2 mM
  apparent KD of MS2 coat protein: 105 nM
[1]
  apparent KD of MS2 coat protein: 270 nM
[3]
  apparent KD of MS2 coat protein: 352 nM

## AGCACUGUGACGGCCGCCACUACAUAUAGGGUGGUCAGGCCCAUAAUACAUGAGGAUCACCCAUGUAGGACCGGGUCUCAGUGCA [Omei Trp Exc B A v12]
Input ligand: arginine 13.2 mM
  apparent KD of MS2 coat protein: 11.7 nM
[1]
  apparent KD of MS2 coat protein: 25.4 nM
[3]
  apparent KD of MS2 coat protein: 18.3 nM

## AUUAAUAAUAUGUAGACGGCGGAGAAGAGACGAGGACCGGUACGGCCGCCACUCGUGUUAGUUAACAUGAGGAUCACCCAUGUUA [#09 Tryptophan A Same State]
Input ligand: arginine 13.2 mM
  apparent KD of MS2 coat protein: 9.55 nM
Input ligand: none
  apparent KD of MS2 coat protein: 11.8 nM
[1]
  apparent KD of MS2 coat protein: 17.5 nM
[3]
  apparent KD of MS2 coat protein: 12.6 nM
[2]
  apparent KD of MS2 coat protein: 11.9 nM

## AGACGAGAAGAGGUUUACCCAUGUACAGAAGGAGCGUCGUUGACGACAGGUAGGUCGCUGGAAACAUGAGGAUCACCCAUGUUGA [#06 Exclusion - Arginine A]
Input ligand: arginine 13.2 mM
  apparent KD of MS2 coat protein: 27.4 nM
Input ligand: none
  apparent KD of MS2 coat protein: 40.8 nM
[1]
  apparent KD of MS2 coat protein: 49.1 nM
[3]
  apparent KD of MS2 coat protein: 59.7 nM
[2]
  apparent KD of MS2 coat protein: 48.3 nM

## CCGUUCUCUGCGGCCGCCACUCAAGGAGCUACAUAGCUCCUAGACAUGAGGAUCACCCAUGUCGCGAGGACCGGGUAGAUUCUCC [Same State Typptophan B GF9]
Input ligand: arginine 13.2 mM
  apparent KD of MS2 coat protein: 34.4 nM
[1]
  apparent KD of MS2 coat protein: 63.6 nM
[3]
  apparent KD of MS2 coat protein: 64.2 nM

## CAAUACGUAACUGAUACCAGUGUACUGACAUGAGGAUCACCCAUGUUGGGUUUUGUUGUACACCCUUGGCAGCAGAAUCGUAUUG [AstrosExyTheB#11]
Input ligand: arginine 13.2 mM
  apparent KD of MS2 coat protein: 46.7 nM
[1]
  apparent KD of MS2 coat protein: 79.4 nM
[2]
  apparent KD of MS2 coat protein: 66.3 nM

## ACAUGAGGAUCACCCAUGUGGCGACUUGAUACCAGACCCGCACUAGUCCCUUGGCAGCAACUACGUGUGGGACACCCAUGUGAAG [aszkullin]
Input ligand: arginine 13.2 mM
  apparent KD of MS2 coat protein: 17.5 nM
[1]
  apparent KD of MS2 coat protein: 23.9 nM
[2]
  apparent KD of MS2 coat protein: 20.2 nM

## ACGACGCAUAGUGAUACCAGUAGAACAUGAGGAUCACCCAUGUCUGUGACGCACCACCUCUGCCCUUGGCAGCACUAUGCGUCAG [SSTheo B #8]
Input ligand: arginine 13.2 mM
  apparent KD of MS2 coat protein: 22.3 nM
[1]
  apparent KD of MS2 coat protein: 30.3 nM
[2]
  apparent KD of MS2 coat protein: 23 nM

## AUAUUAAAGAGUGAUACCAGACUACAUGAGGAUCACCCAUGUUACAUUUAAAUAUCAUUUGUCCCUUGGCAGCACAUUAAGUACA [JR_Nu_ExcTheophyB_Sub022]
Input ligand: arginine 13.2 mM
  apparent KD of MS2 coat protein: 20.9 nM
[1]
  apparent KD of MS2 coat protein: 22.1 nM
[2]
  apparent KD of MS2 coat protein: 17.5 nM

## CGGACAUGAGGAUCACCCAUGUCGUCGACGCGAGGACCGGUACGGCCGCCACUCGCAUGCCAAUGAGCGCAUGCGGCCUGGGUAU [Exclusion Tryp A GF5]
Input ligand: arginine 13.2 mM
  apparent KD of MS2 coat protein: 15.8 nM
Input ligand: none
  apparent KD of MS2 coat protein: 19.5 nM
[1]
  apparent KD of MS2 coat protein: 29 nM
[3]
  apparent KD of MS2 coat protein: 21 nM

## UUUUAGCAUCGAAGGAGCGCUGGUAGGUGACACAUGAGGAUCACCCAUGUGCUCCUUGCCGAGCAGGUAGGUCGCGAUGCUAUUU [SSAB NP+V+V2 #8]
Input ligand: arginine 13.2 mM
  apparent KD of MS2 coat protein: 31.4 nM
Input ligand: none
  apparent KD of MS2 coat protein: 52.6 nM
[1]
  apparent KD of MS2 coat protein: 62.9 nM
[3]
  apparent KD of MS2 coat protein: 73.3 nM
[2]
  apparent KD of MS2 coat protein: 46.2 nM

## GCACUACAUGAGGAUCACCCAUGUGCAGAUACCAGAGGUGUAUGCCUCCCUUGGCAGCUGCGUCGCUCUGGCAGCUUGUGGGUUG [Same State Theophylline A GF18]
Input ligand: arginine 13.2 mM
  apparent KD of MS2 coat protein: 40.3 nM
[1]
  apparent KD of MS2 coat protein: 117 nM
[2]
  apparent KD of MS2 coat protein: 81.5 nM

## UGAAAGUAGGGAAGGAGCGCUACAACAUGAGGAUCACCCAUGUUAUGAGGAUCACCCAUGUGGCAGGUAGGUCGCCCAAAACAUG [Same State Arginine B]
Input ligand: arginine 13.2 mM
  apparent KD of MS2 coat protein: 41.3 nM
Input ligand: none
  apparent KD of MS2 coat protein: 77 nM
[1]
  apparent KD of MS2 coat protein: 95.1 nM
[3]
  apparent KD of MS2 coat protein: 92.7 nM
[2]
  apparent KD of MS2 coat protein: 68 nM

## CCCUCCAGAACGGCCGCCACUAAAGGGUUGUGUGCGACUCCGGAACAUGAGGAUCACCCAUGUCUUAGGACCGGGUUCCCUUCUA [theeternabot_sameState_MS2_Trp_B_30]
Input ligand: arginine 13.2 mM
  apparent KD of MS2 coat protein: 58.9 nM
[1]
  apparent KD of MS2 coat protein: 81.9 nM
[3]
  apparent KD of MS2 coat protein: 82.2 nM

## ACCUACACGGAGACGUGUAGGAGUAAUGAUACCAGCAUGGAGACAUGCCCUUGGCAGCGUUACAUGAGGAUCACCCAUGUACGUU [ETHA #3]
Input ligand: arginine 13.2 mM
  apparent KD of MS2 coat protein: 10.4 nM
[1]
  apparent KD of MS2 coat protein: 15.1 nM
[2]
  apparent KD of MS2 coat protein: 10.2 nM

## UUUUACGCAAGUAAUUCCCGGGAACCGGAUACCAGCUCCUCCAACAGCCCUUGGCAGCCGACCACAUGAGGAUCACCCAUGUUUC [theeternabot_exclusion_MS2_Theo_A_28]
Input ligand: arginine 13.2 mM
  apparent KD of MS2 coat protein: 12 nM
[1]
  apparent KD of MS2 coat protein: 16.1 nM
[2]
  apparent KD of MS2 coat protein: 12.7 nM

## CGACACCAGGCAAUCCAUCACCCGGCUGAUACCAGCUCUUUUGGAAGCCCUUGGCAGCAGAGAACAUGAGGAUCACCCAUGUCAG [theeternabot_exclusion_MS2_Theo_A_18]
Input ligand: arginine 13.2 mM
  apparent KD of MS2 coat protein: 14.5 nM
[1]
  apparent KD of MS2 coat protein: 16.7 nM
[2]
  apparent KD of MS2 coat protein: 17 nM

## CUCGAGUUAUGAGAUACCAGACUAUAGUUUACAUGAGGAUCACCCAUGUUAUGGGUGGUAGUCCCUUGGCAGCUCAUAUGUUUAA [#06 Exclusion-TheophyllineB]
Input ligand: arginine 13.2 mM
  apparent KD of MS2 coat protein: 210 nM
[1]
  apparent KD of MS2 coat protein: 274 nM
[2]
  apparent KD of MS2 coat protein: 305 nM
